Common to all, as to type: binding
Assay [1] concerns SARS-CoV-2 gRNA and sgRNAs. The following applies: for target (unweighted spectral count in RNP capture): Probe II capture, LC-MS/MS LFQ; for background (unweighted spectral count in control): no-probe control pull-down, used as background for Probe II.
The subject of another assay is gRNA of HCoV-OC43. The following applies: type g_36_m, 36 hpi, Probe I.
In another assay the test system is HCoV-OC43 gRNA and sgRNA. The following applies: 24 hpi; type n_24_v; tested against no-probe control; FDR<10%.

B1: FAM120C (protein, UniProt Q9NX05 1-1096, looked up)
Constitutive coactivator of …: MGVQGFQEFLEKRCPGAVVPVDLLKLARTVSRQQQQQHLHRQLPPTAALAPGAPRAARGSVPLQPPLPPAALGAYSGGAGPTRHHHPAHHFHHHGQAQPGLHPPLPPPPPPQLPGARVLVDAGSALPRLYGGYQTDWVCGGQWNAMLGYLSALCQACAYPGGDGLELVVMFPGGLGKDRLAEWGRRCQAERQTAQLIVGHVGNKGTPPPRAWFLPPACLSHCVRLALIRFRVKVFQSLEDHHLEVVAFFRENGFHGLLAHDSEYALYNIPSYYSSHALKLSWNGKNLTTNQFLMQEVAKQLGLKRMNFPIFAALLGNHILPDEDLAAFHWSLLGPEHPLASLKVRAHQLVLPPCDVVIKAVSEYVSSIKDPSNLDVVGKDVFKQSQSRTEDKIERFKKAVEYYSVTTKLSSLPVGPSFLGFRNNRLGNPPLPRNQVGTISAGKPMFSHQVPQKVKYPPPFPVGPNSSLLFSSHALGESHAFSEDPMLQNSPFANWAVSYDSSASQFPNYLPSKASPPLGPDSSHSSSSDGDEPNGASSDHITEAFHHQPEWGNPNRDRGSWAQPVDTGVSEASLGDGEPHIPSLLSMSTRNHMDITIPPLPPVAPEVLRVAEHRHRRGLMYPYIYHVLTKGEIKIPVCIEDECNMELPPAALLFRSARQYVYGVLFSLAETQRKMERLAMRRRLPVEVPSVILKEWSAYKGKSPQTPELVSALTFREWTCPNLKKLWLGKAVEDKNRRMRAFLACMKSDTPSMLNPANVPTHLLLMCCVLRYMVQWPGGRILHRHELDTFLAQAVSTQLYEPDRLQELKIEKLDARGIQLAALFMSGVDTALFANDACGQPVPWEHCCPWIYFDGKLFQSKLIKAGRERVSLVELCDGQADLATKVEKMRQSILEGVNMNHPPPSALLPSPTFVPPMVPSLYPVSLYSRAMGSMPLPPQGRSRGFAGLHPIPPQGGKLEIAGMVVGQWAGSRSSRGRGSFGMQVVSVGGPGKGHGKEQTGRGSKGHKKGNKQGSSDGVSKSLELHQGRSRSQVNGNSGALIKEEKSDHRLPAPSQCALSRDSNECNNGNRYLPMNNREKNHLQEQKLETVAQRKED
For B1, in assay [1], the “target (unweighted spectral count in RNP capture)” value stood at 14 and the “background (unweighted spectral count in control)” value was found to be 1.

B2: HRNPA2B1 (protein, UniProt P22626 1-353, looked up)
Heterogeneous nuclear …: MEKTLETVPLERKKREKEQFRKLFIGGLSFETTEESLRNYYEQWGKLTDCVVMRDPASKRSRGFGFVTFSSMAEVDAAMAARPHSIDGRVVEPKRAVAREESGKPGAHVTVKKLFVGGIKEDTEEHHLRDYFEEYGKIDTIEIITDRQSGKKRGFGFVTFDDHDPVDKIVLQKYHTINGHNAEVRKALSRQEMQEVQSSRSGRGGNFGFGDSRGGGGNFGPGPGSNFRGGSDGYGSGRGFGDGYNGYGGGPGGGNFGGSPGYGGGRGGYGGGGPGYGNQGGGYGGGYDNYGGGNYGSGNYNDFGNYNQQPSNYGPMKSGNFGGSRNMGGPYGGGNYGPGGSGGSGGYGGRSRY
As for B2, in assay [1], the “target (unweighted spectral count in RNP capture)” value is recorded as 88 and the “background (unweighted spectral count in control)” value turned out to be 1.

B3: BICC1 (protein, UniProt Q9H694 1-974, looked up)
Protein bicaudal C homolog 1: MAAQGEPGYLAAQSDPGSNSERSTDSPVPGSEDDLVAGATLHSPEWSEERFRVDRKKLEAMLQAAAEGKGRSGEDFFQKIMEETNTQIAWPSKLKIGAKSKKDPHIKVSGKKEDVKEAKEMIMSVLDTKSNRVTLKMDVSHTEHSHVIGKGGNNIKKVMEETGCHIHFPDSNRNNQAEKSNQVSIAGQPAGVESARVRIRELLPLVLMFELPIAGILQPVPDPNSPSIQHISQTYNISVSFKQRSRMYGATVIVRGSQNNTSAVKEGTAMLLEHLAGSLASAIPVSTQLDIAAQHHLFMMGRNGSNIKHIMQRTGAQIHFPDPSNPQKKSTVYLQGTIESVCLARQYLMGCLPLVLMFDMKEEIEVDPQFIAQLMEQLDVFISIKPKPKQPSKSVIVKSVERNALNMYEARKCLLGLESSGVTIATSPSPASCPAGLACPSLDILASAGLGLTGLGLLGPTTLSLNTSTTPNSLLNALNSSVSPLQSPSSGTPSPTLWAPPLANTSSATGFSAIPHLMIPSTAQATLTNILLSGVPTYGHTAPSPPPGLTPVDVHINSMQTEGKKISAALNGHAQSPDIKYGAISTSSLGEKVLSANHGDPSIQTSGSEQTSPKSSPTEGCNDAFVEVGMPRSPSHSGNAGDLKQMMCPSKVSCAKRQTVELLQGTKNSHLHSTDRLLSDPELSATESPLADKKAPGSERAAERAAAAQQNSERAHLAPRSSYVNMQAFDYEQKKLLATKAMLKKPVVTEVRTPTNTWSGLGFSKSMPAETIKELRRANHVSYKPTMTTTYEGSSMSLSRSNSREHLGGGSESDNWRDRNGIGPGSHSEFAASIGSPKRKQNKSTEHYLSSSNYMDCISSLTGSNGCNLNSSFKGSDLPELFSKLGLGKYTDVFQQQEIDLQTFLTLTDQDLKELGITTFGARRKMLLAISELNKNRRKLFESPNARTSFLEGGASGRLPRQYHSDIASVSGRW
Consider B3, for which, in assay [1], the “target (unweighted spectral count in RNP capture)” value came out at 11 and the “background (unweighted spectral count in control)” value is 1.

B4: HRNPR (protein, UniProt O43390 2-633, looked up)
Heterogeneous nuclear …: ANQVNGNAVQLKEEEEPMDTSSVTHTEHYKTLIEAGLPQKVAERLDEIFQTGLVAYVDLDERAIDALREFNEEGALSVLQQFKESDLSHVQNKSAFLCGVMKTYRQREKQGSKVQESTKGPDEAKIKALLERTGYTLDVTTGQRKYGGPPPDSVYSGVQPGIGTEVFVGKIPRDLYEDELVPLFEKAGPIWDLRLMMDPLSGQNRGYAFITFCGKEAAQEAVKLCDSYEIRPGKHLGVCISVANNRLFVGSIPKNKTKENILEEFSKVTEGLVDVILYHQPDDKKKNRGFCFLEYEDHKSAAQARRRLMSGKVKVWGNVVTVEWADPVEEPDPEVMAKVKVLFVRNLATTVTEEILEKSFSEFGKLERVKKLKDYAFVHFEDRGAAVKAMDEMNGKEIEGEEIEIVLAKPPDKKRKERQAARQASRSTAYEDYYYHPPPRMPPPIRGRGRGGGRGGYGYPPDYYGYEDYYDDYYGYDYHDYRGGYEDPYYGYDDGYAVRGRGGGRGGRGAPPPPRGRGAPPPRGRAGYSQRGAPLGPPRGSRGGRGGPAQQQRGRGSRGSRGNRGGNVGGKRKADGYNQPDSKRRQTNNQQNWGSQPIAQQPLQQGGDYSGNYGYNNDNQEFYQDTYGQQWK
Consider B4, for which, in assay [1], the “target (unweighted spectral count in RNP capture)” value is reported as 32 and the “background (unweighted spectral count in control)” value amounted to 1.

B5: CAPRIN1 (protein, UniProt Q14444 2-709, looked up)
Caprin-1: PSATSHSGSGSKSSGPPPPSGSSGSEAAAGAGAAAPASQHPATGTGAVQTEAMKQILGVIDKKLRNLEKKKGKLDDYQERMNKGERLNQDQLDAVSKYQEVTNNLEFAKELQRSFMALSQDIQKTIKKTARREQLMREEAEQKRLKTVLELQYVLDKLGDDEVRTDLKQGLNGVPILSEEELSLLDEFYKLVDPERDMSLRLNEQYEHASIHLWDLLEGKEKPVCGTTYKVLKEIVERVFQSNYFDSTHNHQNGLCEEEEAASAPAVEDQVPEAEPEPAEEYTEQSEVESTEYVNRQFMAETQFTSGEKEQVDEWTVETVEVVNSLQQQPQAASPSVPEPHSLTPVAQADPLVRRQRVQDLMAQMQGPYNFIQDSMLDFENQTLDPAIVSAQPMNPTQNMDMPQLVCPPVHSESRLAQPNQVPVQPEATQVPLVSSTSEGYTASQPLYQPSHATEQRPQKEPIDQIQATISLNTDQTTASSSLPAASQPQVFQAGTSKPLHSSGINVNAAPFQSMQTVFNMNAPVPPVNEPETLKQQNQYQASYNQSFSSQPHQVEQTELQQEQLQTVVGTYHGSPDQSHQVTGNHQQPPQQNTGFPRSNQPYYNSRGVSRGGSRGARGLMNGYRGPANGFRGGYDGYRPSFSNTPNSGYTQSQFSAPRDYSGYQRDGYQQNFKRGSGQSGPRGAPRGRGGPPRPNRGMPQMNTQQVN
On to B5, for which, in assay [1], the “target (unweighted spectral count in RNP capture)” value was 10 and the “background (unweighted spectral count in control)” value is 1.

B6: LUC7L2: host protein, UniProt Q9Y383 (protein, UniProt Q9Y383 1-392, looked up)
Putative RNA-binding protein …: MSAQAQMRAMLDQLMGTSRDGDTTRQRIKFSDDRVCKSHLLNCCPHDVLSGTRMDLGECLKVHDLALRADYEIASKEQDFFFELDAMDHLQSFIADCDRRTEVAKKRLAETQEEISAEVAAKAERVHELNEEIGKLLAKVEQLGAEGNVEESQKVMDEVEKARAKKREAEEVYRNSMPASSFQQQKLRVCEVCSAYLGLHDNDRRLADHFGGKLHLGFIEIREKLEELKRVVAEKQEKRNQERLKRREEREREEREKLRRSRSHSKNPKRSRSREHRRHRSRSMSRERKRRTRSKSREKRHRHRSRSSSRSRSRSHQRSRHSSRDRSRERSKRRSSKERFRDQDLASCDRDRSSRDRSPRDRDRKDKKRSYESANGRSEDRRSSEEREAGEI
For the molecule B6, the “target (spectral count)” value with gRNA of HCoV-OC43 (HCoV-OC43-infected HCT-8 cells) is reported as 9. Further, in the assay with gRNA of HCoV-OC43 (uninfected-probe control), the “background (spectral count)” value is given as 1. The “target (unweighted spectral count, OC43 Probe II capture)” value with HCoV-OC43 gRNA and sgRNA was found to be 4.

B7: DOX3X (protein, UniProt O00571 2-662, looked up)
ATP-dependent RNA helicase …: SHVAVENALGLDQQFAGLDLNSSDNQSGGSTASKGRYIPPHLRNREATKGFYDKDSSGWSSSKDKDAYSSFGSRSDSRGKSSFFSDRGSGSRGRFDDRGRSDYDGIGSRGDRSGFGKFERGGNSRWCDKSDEDDWSKPLPPSERLEQELFSGGNTGINFEKYDDIPVEATGNNCPPHIESFSDVEMGEIIMGNIELTRYTRPTPVQKHAIPIIKEKRDLMACAQTGSGKTAAFLLPILSQIYSDGPGEALRAMKENGRYGRRKQYPISLVLAPTRELAVQIYEEARKFSYRSRVRPCVVYGGADIGQQIRDLERGCHLLVATPGRLVDMMERGKIGLDFCKYLVLDEADRMLDMGFEPQIRRIVEQDTMPPKGVRHTMMFSATFPKEIQMLARDFLDEYIFLAVGRVGSTSENITQKVVWVEESDKRSFLLDLLNATGKDSLTLVFVETKKGADSLEDFLYHEGYACTSIHGDRSQRDREEALHQFRSGKSPILVATAVAARGLDISNVKHVINFDLPSDIEEYVHRIGRTGRVGNLGLATSFFNERNINITKDLLDLLVEAKQEVPSWLENMAYEHHYKGSSRGRSKSSRFSGGFGARDYRQSSGASSSSFSSSRASSSRSGGGGHGSSRGFGGGGYGGFYNSDGYGGNYNSQGVDWWGN
As for B7, in assay [1], the “target (unweighted spectral count in RNP capture)” value worked out at 49 and the “background (unweighted spectral count in control)” value is 1.

For the origin of these results see patent US20230407373A1 (priority 2020, published 2023).
